The values that follow come from publication PMC9355956.

The series concerns CC(C)C[C@H](NC(=O)[C@H](CCC(N)=O)NC(=O)[C@H](CCCCN)NC(=O)[C@H](CCCNC(=N)N)NC(=O)[C@@H]1CCCN1C(=O)[C@H](C)NC(=O)[C@H](CCCCN)NC(=O)CNC(=O)CNC(=O)[C@@H](NC(=O)[C@H](CO)NC(=O)[C@H](CCCCN)NC(=O)[C@H](CCCNC(=N)N)NC(=O)[C@H](C)NC(=O)[C@@H](NC(=O)[C@H](CCC(N)=O)NC(=O)[C@H](CCCCN(C)C)NC(=O)[C@@H](NC(=O)[C@H](CCCNC(=N)N)NC(=O)[C@H](C)N)[C@@H](C)O)[C@@H](C)O)[C@@H](C)O)C(=O)N[C@@H](C)C(=O)O. Description: purified protein, by the assay type. The following applies: other: substrate, 20 nM LSD1.

Protocol: The activity of hSMOX, hPAOX, and LSD1 enzymes was measured using the HyPerBlu chemiluminescent reagent for the direct detection of the hydrogen peroxide product. […] Hydrogen peroxide product formation was monitored 30 min after the addition of HyPerBlu on a PHERAstar microplate reader (BMG LABTECH, Cary, NC). All compounds were spotted into the assay plates using Echo acoustic dispensing technology (BeckmanCoulter, Indianapolis, IN). Unless otherwise stated, all reactions were carried out in 384-well assay format.
2 µL/well of 2x substrate was dispensed into the assay plate followed by 2 µL/well of 2x enzyme to initiate the reactions. […] The data were fit to the 4-parameter IC50 equation in GraphPad Prism.
Briefly, 2.5 µL/well of the twofold substrate solutions prepared in buffer was added to the assay wells followed by 2.5 µL/well of the 2x enzyme to initiate the reactions.
The initial velocity data were fit to the Michaelis-Menten equation in GraphPad Prism. Y=Vmax*X/(Km+X) where Vmax is the maximal velocity, X is the substrate concentration and Km is the Michaelis-Menten constant. The kcat value was determined by dividing Vmax value by the enzyme concentration.

For the substance LSD1 (Homo sapiens), the Km is given as 3.8 ± 0.35 µM.

As a reminder, the Km is the substrate concentration at which the rate is half of its maximum.
